The assay deals with T1, recombinant mouse CD206 full length protein (Mus musculus, UniProt Q61830).
T1 construct: honeybee melittin signal peptide (N); host or cells: Expi293E cells
T1 sequence (Q61830 23-1387): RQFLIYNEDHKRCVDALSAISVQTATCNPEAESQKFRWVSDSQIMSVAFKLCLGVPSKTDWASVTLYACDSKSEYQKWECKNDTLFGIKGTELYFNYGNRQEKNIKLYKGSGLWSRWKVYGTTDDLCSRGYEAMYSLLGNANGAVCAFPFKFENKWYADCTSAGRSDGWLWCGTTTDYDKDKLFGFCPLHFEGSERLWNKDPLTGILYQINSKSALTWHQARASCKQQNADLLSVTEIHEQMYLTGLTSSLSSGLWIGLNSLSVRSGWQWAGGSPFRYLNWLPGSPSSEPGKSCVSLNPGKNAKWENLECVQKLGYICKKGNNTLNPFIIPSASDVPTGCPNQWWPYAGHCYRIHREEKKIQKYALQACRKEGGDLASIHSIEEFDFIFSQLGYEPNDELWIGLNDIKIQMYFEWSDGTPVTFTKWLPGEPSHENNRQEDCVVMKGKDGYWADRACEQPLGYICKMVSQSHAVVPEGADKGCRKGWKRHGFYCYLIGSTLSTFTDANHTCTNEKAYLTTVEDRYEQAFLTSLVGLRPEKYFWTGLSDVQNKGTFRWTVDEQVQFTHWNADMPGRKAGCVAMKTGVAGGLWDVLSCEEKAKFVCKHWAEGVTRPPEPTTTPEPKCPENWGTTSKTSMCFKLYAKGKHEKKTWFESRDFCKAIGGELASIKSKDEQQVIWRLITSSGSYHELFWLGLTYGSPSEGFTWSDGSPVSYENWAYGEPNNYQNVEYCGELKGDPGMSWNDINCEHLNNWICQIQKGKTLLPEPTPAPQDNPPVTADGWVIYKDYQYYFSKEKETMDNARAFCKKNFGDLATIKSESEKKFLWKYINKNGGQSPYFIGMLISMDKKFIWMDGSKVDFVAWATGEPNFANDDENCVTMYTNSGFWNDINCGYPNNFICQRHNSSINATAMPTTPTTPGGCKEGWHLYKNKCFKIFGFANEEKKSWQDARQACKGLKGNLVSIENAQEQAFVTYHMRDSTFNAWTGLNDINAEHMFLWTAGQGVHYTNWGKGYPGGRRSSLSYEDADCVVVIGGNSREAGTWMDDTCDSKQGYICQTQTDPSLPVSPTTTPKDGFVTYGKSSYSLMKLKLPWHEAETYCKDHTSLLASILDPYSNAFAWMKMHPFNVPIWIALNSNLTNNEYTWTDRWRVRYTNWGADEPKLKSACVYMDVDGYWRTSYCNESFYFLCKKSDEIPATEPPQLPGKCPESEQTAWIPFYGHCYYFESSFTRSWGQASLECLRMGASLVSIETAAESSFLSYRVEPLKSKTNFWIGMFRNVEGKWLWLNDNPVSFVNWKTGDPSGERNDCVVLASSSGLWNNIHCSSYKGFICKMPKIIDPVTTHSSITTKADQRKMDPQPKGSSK
Briefly: Negative stain electron microscopy of open vs closed CD206 conformation. It is filed as biochemical. The note with it: negative stain EM. As for the experimental part: A 3 μL aliquot containing ˜0.01 mg/mL of the sample was applied for 20 seconds onto a carbon-coated 200 Cu mesh grid that had been glow discharged at 30 mA for 30 sec, then negatively stained with 0.7% (w/v) uranyl formate for 40 sec. […] Images were acquired with an Eagle 2k×2k CCD camera (http://FEI.com) using a nominal defocus of 1500 nm and the SerialEM software (54). […] Images were acquired with a Ceta 4k×4k CCD camera (http://FEI.com) using a nominal defocus of 1200 nm and the EPU software. For electron microscopy data processing, particles were selected from the micrographs, extracted, and a reference-free 2D class averages were obtained using RELION 2.1.0. Microscale thermophoresis and cellular thermal shift assays.

For the sequence “FFRKSKEKIG [LL37F1, 10mer motif from cathelicidin antimicrobial peptide [Homo sapiens]]”, the “closed vs open conformation of CD206” value is listed as “lower ratios of closed-to-open conformations”. Turning to EKLSAFRNFF [AVP1], the “closed vs open conformation of CD206” value is reported as “lower ratios of closed-to-open conformations”.
